The labels stand for the following.
B1: Twister Ribozyme (parent)
chain: AACACUGCCAAUGCCGGUCCCAAGCCCGGAUAAAAGUGGAGGGGGCGG

These results are taken from the RNAGym collection of RNA variant scans (doi:10.7554/elife.80360).

The variants in the data set derive from B1. In words: self-cleavage, relative activity (ratio to wild type); higher = more cleavage; co-transcriptional.
Turning to AACACUGCCAACGCCGGUUCCAAGCCCGGAUAAAAGUGGAGGGGGCGG, the self-cleavage is 0.951. As to AACACUGCCAACGCCGGUCCCAAGCCCCGAUAAAAGUGGAGGGGGCGG, the self-cleavage is 0.814. With AACACUGCCAACGCCGGUCCCAAGCCCAGAUAAAAGUGGAGGGGGCGG, the self-cleavage came to 0.829.

Turning to AACACUGCCAAAGCCGGUCCCAAACCCGGAUAAAAGUGGAGGGGGCGG, the self-cleavage amounted to 0.103. The figure for AACACUGCCAACGCAGGUCCCAAGCCCGGAUAAAAGUGGAGGGGGCGG is 0.739.

In the case of AACACUGCCAACGCGGGUCCCAAGCCCGGAUAAAAGUGGAGGGGGCGG, the self-cleavage is 0.0964.

Consider AACACUGCCAACCCCGGUCCCAAGCCCGGAUAAAAGUGGAGGGGGCGG, for which the self-cleavage turned out to be 0.453. With AACACUGCCAACUCCGGUCCCAAGCCCGGAUAAAAGUGGAGGGGGCGG, the self-cleavage is 0.659. As for AACACUGCCAACACCGGUCCCAAGCCCGGAUAAAAGUGGAGGGGGCGG, the self-cleavage was 0.772.

For the variant AACACUGCCAAAGCCGGUCCCAAGCCCAGAUAAAAGUGGAGGGGGCGG, the self-cleavage was found to be 0.912. For the variant AACACUGCCAAGGCCGGUCCCAAGCCCGGAUAGAAGUGGAGGGGGCGG, the self-cleavage stood at 0.809. For AACACUGCCAAGGCCGGUCCCAAGCCCGGAUAUAAGUGGAGGGGGCGG, the self-cleavage is 0.868. For the variant AACACUGCCAACGCCGGUCCCAAGCCCGGAUAAAACUGGAGGGGGCGG, the self-cleavage is 0.559. Regarding AACACUGCCAACGCCGGUCCCAAGCCCGGAUAAAAUUGGAGGGGGCGG, the self-cleavage worked out at 0.543. Regarding AACACUGCCAAAGCCGGGCCCAAGCCCGGAUAAAAGUGGAGGGGGCGG, the self-cleavage amounted to 0.106. The figure for AACACUGCCAACGCCGGUCCCAAGCUCGGAUAAAAGUGGAGGGGGCGG is 0.333; for AACACUGCCAACGCCGGUCCCAAGCACGGAUAAAAGUGGAGGGGGCGG it is 0.658; for AACACUGCCAAGGCCGGUCCCGAGCCCGGAUAAAAGUGGAGGGGGCGG it is 0.316. The same measure for AACACUGCCAAAGCCGGUCCCAAGCCCGGAUAAAAGUCGAGGGGGCGG: 1.11; for AACACUGCCAAAGCCGGUCCCAAGCCCGGAUAAAAGUAGAGGGGGCGG: 1.08.

With AACACUGCCAACGCCGGUCCCAAGCCCGGAUAAAAGUGGAGGGGGCGG, the self-cleavage came to 0.961. AACACUGCCAAGGCCGGUCCCAAGCCCGGAUAAAAGUGGAGGGGGCGG: the self-cleavage is 0.946.

In the case of AACACUGCCAAGGCCGGUCCCAGGCCCGGAUAAAAGUGGAGGGGGCGG, the self-cleavage was 0.502.

Turning to AACACUGCCAACGCCGGUCCCAAGCCCGGAUAAUAGUGGAGGGGGCGG, the self-cleavage amounted to 0.886.

Regarding AACACUGCCAACGCCGGUCCCAAGCCCGGAUAAGAGUGGAGGGGGCGG, the self-cleavage turned out to be 0.821. As for AACACUGCCAACGCCGAUCCCAAGCCCGGAUAAAAGUGGAGGGGGCGG, the self-cleavage is 0.532.

Turning to AACACUGCCAACGCCGGUCCCAAGCCAGGAUAAAAGUGGAGGGGGCGG, the self-cleavage was 0.577.

As to AACACUGCCAACGCCGGUCCCAAGCCGGGAUAAAAGUGGAGGGGGCGG, the self-cleavage amounted to 0.0656. For AACACUGCCAACGCCGGUCCCAAGCCCGGAUAAAAGUGGAGGGGCCGG, the self-cleavage was found to be 0.584. In the case of AACACUGCCAACGCCGGUCCCAAGCCCGGAUAAAAGUGGAGGGGUCGG, the self-cleavage amounted to 0.973. The figure for AACACUGCCAAAGCCGGUCCCAAGCCCGGAUAAAAGUGGAGGGGGCGU is 1.18; for AACACUGCCAAAGCCGGUCCCAAGCCCGGAUAAAAGUGGAGGGGGCGC it is 1.22; for AACACUGCCAAAGCCGGUCCCAAGCCCGGAUAAAAGUGGAGGGGGCGA it is 0.991.

Take AACACUGCCAAAGCCGGUCCCAAGCCCGGAUAAAAAUGGAGGGGGCGG: the self-cleavage was found to be 0.924. On to AACACUGCCAAAGCCGGUCCCAAGCCCGGAUAAAAUUGGAGGGGGCGG, for which the self-cleavage was 0.794. Consider AACACUGCCAACGCCGGUCCCAAGCCCGGAUAAAAGGGGAGGGGGCGG, for which the self-cleavage worked out at 0.72. AACACUGCCAACGCCGGUCCCAAGCCCGGAUAAAAGAGGAGGGGGCGG: the self-cleavage was found to be 0.747.

As for AACACUGCCAACGCCGGUCCCAAGCCCGGAUAAAAGUGGAGGGAGCGG, the self-cleavage is 0.852. The figure for AACACUGCCAACGCCGGUCCCAAGCCCGGAUAAAAGUGGAGGGUGCGG is 0.902; for AACACUGCCAAAGCCGUUCCCAAGCCCGGAUAAAAGUGGAGGGGGCGG it is 0.41; for AACACUGCCAACGCCGGUCCCAAGCCCGGAUAAACGUGGAGGGGGCGG it is 1.08. Regarding AACACUGCCAACGCCGGUCCCAAGCCCGGAUAAAAGUGCAGGGGGCGG, the self-cleavage worked out at 0.127. AACACUGCCAACGCCGGUCCCAAGCCCGGAUAAAAGUGAAGGGGGCGG: the self-cleavage was determined as 0.609. The same measure for AACACUGCCAACGCCGGUCCCAAGCCCGGAUAAAAGUGUAGGGGGCGG: 0.222. Turning to AACACUGCCAACGCCGGUCGCAAGCCCGGAUAAAAGUGGAGGGGGCGG, the self-cleavage was determined as 0.103.

On to AACACUGCCAACGCCGGUCCCAAGCCCGGAUAAAAGUGGAGGGGGCUG, for which the self-cleavage was 0.944. In the case of AACACUGCCAACGCCGGUCCCAAGCCCGGAUAAAAGUGGAGGGGGCCG, the self-cleavage was determined as 0.497. With AACACUGCCAAAGCCGGUCCCAAGCCCGCAUAAAAGUGGAGGGGGCGG, the self-cleavage was 0.949. Regarding AACACUGCCAACGCCGGCCCCAAGCCCGGAUAAAAGUGGAGGGGGCGG, the self-cleavage is 0.564. The same measure for AACACUGCCAACGCCGGACCCAAGCCCGGAUAAAAGUGGAGGGGGCGG: 0.474; for AACACUGCCAAAGCCGGUCCCAAGCCCGGAUAAAAGUGGAGGGGGCUG: 1.05; for AACACUGCCAAAGCCGGUCCCAAGCCCGGAUAAAAGUGGAGGGGGCAG: 1.13. In the case of AACACUGCCAACGCCGGUCCCAAGCCCGGAUAAAAGUGGAGGGGGUGG, the self-cleavage came out at 0.957. The same measure for AACACUGCCAACGCCGGUCCCAAGCCCGGAUUAAAGUGGAGGGGGCGG: 0.835.
